Experimental data taken from patent US20220402995A1 (TOSOH, published 2022).

Assays:
[1] = molecular target: T1, VLP2 (virus-like particles of AAV2) (AAV2, UniProt P03135 1-735; P03135 1-598; P03135 1-533); test: ELISA on VLP2; A450 after 50.3°C 15 min / untreated
T1 construct: Empty AAV2 capsid; background says about 60 protein molecules, VP1:VP2:VP3 = 1:1:10; Immobilised on the ELISA plate

[2] = molecular target: T1, VLP2 (virus-like particles of AAV2); test: ELISA on VLP2; A450 after 66.1°C 15 min / untreated
[3] = molecular target: T1, VLP2 (virus-like particles of AAV2); test: ELISA on VLP2; binding after 43°C 15 min / untreated
[4] = molecular target: T1, VLP2 (virus-like particles of AAV2); test: ELISA on VLP2; A450 after pH 2.5 30°C 2 h / untreated
[5] = molecular target: T1, VLP2 (virus-like particles of AAV2); test: ELISA on VLP2; A450 after pH 2.5 30°C 24 h / untreated
[6] = molecular target: T2, AAV2-EGFP (AAV vector of serotype 2 carrying an EGFP gene) (AAV2, UniProt P03135 1-735; P03135 1-598; P03135 1-533); test: mini column of immobilised protein loaded to breakthrough; AAV2-EGFP recovered by elution at pH 3.0, qPCR
T2 construct: Genome-containing AAV2 particle; amounts counted as vector genomes (VG) by qPCR
T2 sequence (P03135 whole entry, chain 1 of 3, the tested form may be a part): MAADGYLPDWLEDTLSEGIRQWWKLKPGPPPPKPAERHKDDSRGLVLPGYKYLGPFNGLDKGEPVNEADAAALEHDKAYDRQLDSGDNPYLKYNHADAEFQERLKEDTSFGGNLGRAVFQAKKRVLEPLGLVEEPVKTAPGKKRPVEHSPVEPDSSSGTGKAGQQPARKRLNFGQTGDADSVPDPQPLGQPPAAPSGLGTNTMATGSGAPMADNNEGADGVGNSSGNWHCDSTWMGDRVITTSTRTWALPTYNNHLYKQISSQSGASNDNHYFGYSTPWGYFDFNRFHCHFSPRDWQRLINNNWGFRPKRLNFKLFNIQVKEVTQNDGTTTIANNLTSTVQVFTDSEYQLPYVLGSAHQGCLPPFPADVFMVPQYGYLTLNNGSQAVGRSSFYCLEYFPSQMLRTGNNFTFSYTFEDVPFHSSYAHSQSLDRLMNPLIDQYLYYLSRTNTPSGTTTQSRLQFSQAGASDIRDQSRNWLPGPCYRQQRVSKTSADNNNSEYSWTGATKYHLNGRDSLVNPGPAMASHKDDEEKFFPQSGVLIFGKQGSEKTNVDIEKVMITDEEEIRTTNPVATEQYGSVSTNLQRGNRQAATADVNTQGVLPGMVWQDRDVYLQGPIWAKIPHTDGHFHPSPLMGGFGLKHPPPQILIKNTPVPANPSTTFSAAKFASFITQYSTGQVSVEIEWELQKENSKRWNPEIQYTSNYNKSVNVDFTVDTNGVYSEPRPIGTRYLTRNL
T2 sequence (P03135 139-735, tags left off, chain 2 of 3): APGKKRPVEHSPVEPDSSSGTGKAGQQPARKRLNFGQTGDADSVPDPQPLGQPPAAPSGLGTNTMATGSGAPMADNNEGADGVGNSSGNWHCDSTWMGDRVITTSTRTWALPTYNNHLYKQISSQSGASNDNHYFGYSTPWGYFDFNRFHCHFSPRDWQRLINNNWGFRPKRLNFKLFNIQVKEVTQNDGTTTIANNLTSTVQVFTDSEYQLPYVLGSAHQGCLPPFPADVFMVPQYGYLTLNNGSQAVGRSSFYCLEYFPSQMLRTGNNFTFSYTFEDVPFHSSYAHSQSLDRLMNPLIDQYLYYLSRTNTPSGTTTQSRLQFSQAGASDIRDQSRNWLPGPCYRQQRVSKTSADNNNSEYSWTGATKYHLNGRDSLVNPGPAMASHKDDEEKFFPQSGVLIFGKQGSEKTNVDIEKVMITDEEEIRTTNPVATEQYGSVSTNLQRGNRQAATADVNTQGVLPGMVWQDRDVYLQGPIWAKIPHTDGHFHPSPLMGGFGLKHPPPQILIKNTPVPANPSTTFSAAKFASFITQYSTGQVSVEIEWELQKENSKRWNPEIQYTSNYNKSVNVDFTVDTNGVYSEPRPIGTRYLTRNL
T2 sequence (P03135 203-735, chain 3 of 3): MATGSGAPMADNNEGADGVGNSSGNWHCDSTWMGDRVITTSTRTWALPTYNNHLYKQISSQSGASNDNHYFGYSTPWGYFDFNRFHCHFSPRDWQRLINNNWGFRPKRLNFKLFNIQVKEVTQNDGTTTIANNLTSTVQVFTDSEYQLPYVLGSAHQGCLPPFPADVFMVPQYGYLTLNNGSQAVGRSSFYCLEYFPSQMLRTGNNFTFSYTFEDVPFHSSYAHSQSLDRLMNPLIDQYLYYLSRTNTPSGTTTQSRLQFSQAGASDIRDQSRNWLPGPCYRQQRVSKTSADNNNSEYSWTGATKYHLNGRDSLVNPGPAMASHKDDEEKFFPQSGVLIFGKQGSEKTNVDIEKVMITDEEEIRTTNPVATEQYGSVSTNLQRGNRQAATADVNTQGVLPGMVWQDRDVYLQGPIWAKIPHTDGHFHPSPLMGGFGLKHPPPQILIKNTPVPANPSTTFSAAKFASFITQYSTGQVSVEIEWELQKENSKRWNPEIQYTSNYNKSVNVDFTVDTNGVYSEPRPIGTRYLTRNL

[7] = molecular target: T2, AAV2-EGFP (AAV vector of serotype 2 …); test: column of AVR5eHC immobilised on gel; cell extract with AAV2-EGFP applied, elution at pH 2.5

T1 sequence (P03135 whole entry, chain 1 of 3): as the sequence (P03135 whole entry, chain 1 of 3, the tested form may be a part) above
T1 sequence (P03135 139-735, tags left off, chain 2 of 3): as the sequence (P03135 139-735, tags left off, chain 2 of 3) above
T1 sequence (P03135 203-735, chain 3 of 3): as the sequence (P03135 203-735, chain 3 of 3) above

Row | Binder | Residual activity [%] [1] | Residual activity [%] [2] | Residual activity [%] [3] | Residual activity [%] [4] | Residual activity [%] [5] | amount of AAV2-EGFP bound per 1 mL of protein-immobilized gel [6] | binding result [7]
1 | wild-type AAV-binding protein (extracellular domains 1 and 2, PKD1 and PKD2, of KIAA0319L/AAVR, positions 312-500 of SEQ ID NO: 1, with His tag) (receptor, Expressed in E. coli; tested as extract, culture supernatant or purified protein; also called wild-type AVR; product of pET-AAVRD2) MGSAGESVQITLPKNEVQLNAYVLQEPPKGETYTYDWQLITHPRDYSGEMEGKHSQILKLSKLTPGLYEFKVIVEGQNAHGEGYVNVTVKPEPRKNRPPIAIVSPQFQEISLPTTSTVIDGSQSTDDDKIVQYHWEELKGPLREEKISEDTAILKLSKLVPGNYTFSLTVVDSDGATNSTTANLTVNKAVDHHHHHH | 16.1% | 9.6% | 43.4% | 7.9% | 5.1% | 8.6e+09 VG/mL (gel) | –
2 | AVR5eHC (AVR5e with a cysteine tag for immobilization at the C-terminus) (receptor, also called AVR5e-immobilized gel; AVR5e column) MGSAGESVQITLPKNEVQLNAYVLQEPPKGETCTYDWQLITHPRDYSGEMEGKHSQILKLSKLTPGLYEFKVIVEGQNAHSEGYVNVTVEPEPRKNRPPIAIVSPQFQEISLPTTSTVIDGSQSTDDDKIVQYHWEELKGPLREEKISEDTAILKLSKLVPGNYTFRLTVVDSDGATDSTTANLTVNKAVDHHHHHHCRNDTCG | – | – | – | – | – | – | binds
